Consider 29 sequences from the supplement of paper PMC9170038.

In data set [1] the test system is MS2 coat protein. Nature of the data set: apparent KD of MS2 coat protein; higher = weaker reporter binding. The settings on record: Eterna round: R107. The procedure: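 RNA-MaP round R107: designed RNA switches with theophylline, tryptophan, arginine or FMN aptamers are transcribed on-chip within common flanks. They are titrated with SNAP-549-labelled MS2 coat protein in RNA-MaP buffer (100 mM Tris pH 7.5, 80 mM KCl, 4 mM MgCl2), without ligand or with the indicated ligand. Median apparent KD per design.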

The test system of data set [2] is K4 kissing-loop RNA reporter. Nature of the data set: apparent KD of K4 kissing-loop reporter; higher = weaker reporter binding. The settings on record: Eterna round: R107. As for the experimental part: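 RNA-MaP round R107: designed RNA switches with theophylline, tryptophan, arginine or FMN aptamers are transcribed on-chip within common flanks. They are titrated with a labelled K4 kissing-loop RNA reporter in RNA-MaP buffer (100 mM Tris pH 7.5, 80 mM KCl, 4 mM MgCl2), without ligand or with the indicated ligand. Median apparent KD per design.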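 Note: bound reporter read as fluorescence of individual clusters on recovered sequencing chips by microscopy, with normalized cluster intensities fitted with a binding model.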

Where [3] appears, read: input ligand: theophylline 20 uM.
[4] abbreviates: input ligand: theophylline 2 mM.
Setting [5] is: input ligand: tryptophan 2.4 mM.

Take “AAAACCUCACCUGAGGAACACCCAGGUGAUACCAGCCUGGAAACAGGCCCUUGGCAGCACCAGGUCAUCAAAGAUGACCAAAUAA [TheoAX 25 #OpenEnded #AlternativeMS2]”: the “apparent KD of MS2 coat protein” value in data set [1] (input ligand: arginine 13.2 mM) is 17.5 nM; in data set [1] (input ligand: none), 22.7 nM; in data set [1] (setting [3]), 40.7 nM; in data set [1] (setting [4]), 595 nM; in data set [1] (setting [5]) it was 21.3 nM.
Take “AAAAGACAUGAGGAUCACCCAUGUAGAGAUACCAGAUGCAUGGACAUCCCUUGGCAGCUCGUCACUUUCUAUAUUUUCCAGACGC [theeternabot_sameState_MS2_Theo_A_37]”: the “apparent KD of MS2 coat protein” value in data set [1] (input ligand: arginine 13.2 mM) turned out to be 31 nM; in data set [1] (setting [3]), 59.1 nM; in data set [1] (setting [5]) it was 59.1 nM.
On to “AAAAGAGGUGGAAGGAGCGGGAGACAUGAGGAUCACCCAUGUGAAGUAACGAAAGGUACAGCCCAGGUAGGUCGCCAUGUCGAAA [qxqamullin]”, for which the “apparent KD of MS2 coat protein” value is 20.6 nM in data set [1] (input ligand: arginine 13.2 mM); 31.7 nM in data set [1] (input ligand: none); 73.5 nM in data set [1] (setting [3]); 40.4 nM in data set [1] (setting [4]); 32.8 nM in data set [1] (setting [5]).
With “AAAAGUAGGUCCAAUAAAACUACAUGUGAAGGAGCGCGCGAAAGCGCAGGUAGGUCGCACAUGAGGAUCACCCAUGUCCUACAAA [MAT - Exclusion Arginine A - Mod of Eli - D6]”, the “apparent KD of MS2 coat protein” value in data set [1] (input ligand: arginine 13.2 mM) came to 39.8 nM; in data set [1] (input ligand: none) it was 47.3 nM; in data set [1] (setting [3]), 77.2 nM; in data set [1] (setting [4]), 65.7 nM; in data set [1] (setting [5]) it was 39.8 nM.
As to “AAAAUAAAAGGUGCAAAAUCCUAAUGUGAAGGAGCGCACGAAAGUGCAGGUAGGUCGCACAUGAGGAUCACCCAUGUAGCACCAA [ArgEX 4 #SwitchBubble]”, the “apparent KD of MS2 coat protein” value in data set [1] (input ligand: arginine 13.2 mM) was determined as 54.8 nM; in data set [1] (input ligand: none) it was 146 nM; in data set [1] (setting [3]) it was 115 nM; in data set [1] (setting [4]), 211 nM; in data set [1] (setting [5]), 147 nM.
On the same counts, the results for “AAAAUCCUACUUGAGGAUCACCCAGGUGAAGGAGCGCCCGAAAGGGCAGGUAGGUCGCACCUGAGGAUCACCCUGGUAACCUAAA [ArgEX 9 #DoubleMS2 #OpenEnded]” are 140 nM, 164 nM, 171 nM, 211 nM and 178 nM.
With “AAACGUUGCUGCGAUACCAGACAUGAGGAUCACCCAUGUACCAAGAAAACGUACAUAAAUGUCCCUUGGCAGCGCAGCAACGAAA [MAT - Exclusion Theophlline B - Mod of Eli - D28]”, the “apparent KD of MS2 coat protein” value is 141 nM in data set [1] (input ligand: arginine 13.2 mM), 511 nM in data set [1] (setting [3]) and 635 nM in data set [1] (setting [5]).
Regarding “AAAUAAACCUCGGCCGCCACUCGCCAUGAGGAUCACCCAUGUAACAUGAGGAUCACCCAUGUACAGAGGACCGGGAGGUCCUAGU [Same State Tryptophan B GF 13]”, the “apparent KD of MS2 coat protein” value in data set [1] (input ligand: arginine 13.2 mM) worked out at 48.3 nM; in data set [1] (setting [3]), 68.9 nM; in data set [1] (setting [4]), 87.1 nM.
For the sequence “AACAACAAGGGAAGGAGCGCGAAUAAUAAACAUGAGGAUCACCCAUGUAUCAUGGGCUUAACGCAGGUAGGUCGCCCACAAACAA [Exclusion Arginine B GF1]”, the “apparent KD of MS2 coat protein” value in data set [1] (input ligand: arginine 13.2 mM) was determined as 34 nM; in data set [1] (input ligand: none) it was 37.9 nM; in data set [1] (setting [3]), 47.2 nM; in data set [1] (setting [4]), 49.4 nM; in data set [1] (setting [5]), 40.6 nM.
For “AACACACCAAAUGAUACCAGCUACAACAUGAUACAAAACCACAUGAGGAUCACCCAUGUAAGCCCUUGGCAGCAUACUACUGUAA [theeternabot_exclusion_MS2_Theo_B_40]”, the “apparent KD of MS2 coat protein” value is 16.9 nM in data set [1] (input ligand: arginine 13.2 mM), 24.2 nM in data set [1] (setting [3]) and 18.7 nM in data set [1] (setting [5]).
Consider “AACAUACAAUAAUAGGUGGAUAUAAGGCGGCGAGGACCGGUACGGCCGCCACUCGCGUACAUGAGGAUCACCCAUGUCUGAAACU [Same State - Tryptophan A (Freestyle 3)]”, for which the “apparent KD of MS2 coat protein” value was determined as 16.8 nM in data set [1] (input ligand: arginine 13.2 mM), 26.8 nM in data set [1] (setting [3]) and 27 nM in data set [1] (setting [4]).
On the same counts, the results for “AACAUGAGGAUCACCCAUGUCCUCGUGUACCGAGGACCGGUACGGCCGCCACUCGGUUCUCGCGAGGAUGGUCAAAGACUAUCCA [Omei Trp A SS B v4]” are 202 nM, 643 nM and 1010 nM.
The like results for “AACGAGUGGCGGCCAUUGGGUGAUCCUCUACGAGGACCGGUACGGCCGCCACUCGAUAACAUGAGGAUCACCCAUGUGCCGAUAA [|T'-M'-Trp-Ms2|_Design10b]” were, in that order, 42.3 nM, 164 nM and 240 nM.
With “UUAGAGAUCUCAGGAUAUCAGUGAUGUUGGUGUGCAGAUCUGAGAUAGAAUUCUAUCUCAGAUCAAUGAGAAGGGAGAUCUCAUU [AK5 Exc FMN B]”, the “apparent KD of K4 kissing-loop reporter” value in data set [2] (input ligand: FMN 200 uM) was 303 nM; in data set [2] (input ligand: arginine 13.2 mM) it was 149 nM; in data set [2] (input ligand: none) it was 152 nM; in data set [2] (setting [3]) it was 173 nM; in data set [2] (setting [5]), 142 nM.
The like results for “UUAGCAGUAUACUGCAAGACCUAUACUGAUACCAGAGCCUAUAGGCUCCCUUGGCAGCGGAUCGAGUGAUGUUCGUAAGGUCAUU [AK4.3 SS Theophylline A]” were, in that order, 651 nM, 667 nM, 1080 nM, 682 nM and 458 nM.
Turning to “UUAUCAUCAGCGGCCGCCACUGCAAAUUGGAGUGAUGUUCCAAGCGUGGAUAUUGAAAUUACUAGUAGGACCGGGUUGAUGAAUU [AK 2 Ex Trypt B]”, the “apparent KD of K4 kissing-loop reporter” value in data set [2] (input ligand: FMN 200 uM) worked out at 158 nM; in data set [2] (input ligand: arginine 13.2 mM), 132 nM; in data set [2] (input ligand: none), 158 nM; in data set [2] (setting [3]), 105 nM; in data set [2] (setting [5]) it was 159 nM.
“UUCAGGUGUUCGGCCGCCACUCCAGUGAUGUUGGAGUGGCUUCACAAGGGCCAGGACAAUGUAGGGAGGACCGGGAAUAUCGCAG [Atvebeance]”: the “apparent KD of K4 kissing-loop reporter” value in data set [2] (input ligand: FMN 200 uM) is 143 nM; in data set [2] (input ligand: arginine 13.2 mM) it was 117 nM; in data set [2] (input ligand: none), 129 nM; in data set [2] (setting [3]), 107 nM; in data set [2] (setting [5]), 125 nM.
The like results for “UUCGGAUAAGUCCUUCCGAAGAAGCCGGAAGGAGCGACUCAAUAGUCAGGUAGGUCGCCGGCAAGCGUAGUGAUGUUAUGCUCAC [Arg A SS t6]” were, in that order, 966 nM, 598 nM, 882 nM, 713 nM and 740 nM.
On the same counts, the results for “UUCUACGAGUGAUGUUCGUAGUGUAUUCGCUAGGAUAUCGUUUUUUCGAGAAGGAGUGAUGAAGUGAUACGAAAGUAUCGCUUCU [FMN A 14]” are 223 nM, 241 nM, 352 nM, 411 nM and 292 nM.
On the same counts, the results for “UUCUUGAUGGAAACAUCGAGGAUUACUGAUACCAGUAUCGAUAGAUACCCUUGGCAGCAGAAUCAGUGAUCACGAGUGAUGUUCG [Ex Theophylline A K4 10]” are 655 nM, 551 nM, 733 nM, 564 nM and 569 nM.
Regarding “UUGCCUCUGGCUGAUACCAGUGAUGCAGGGUAUGAAACAGGGAGUGAUGUUCCCUGCAGCCACCCUUGGCAGCAGUUUAAGUUUG [Exclusion Theophylline B GF 21]”, the “apparent KD of K4 kissing-loop reporter” value in data set [2] (input ligand: FMN 200 uM) is 182 nM; in data set [2] (input ligand: arginine 13.2 mM), 152 nM; in data set [2] (input ligand: none), 181 nM; in data set [2] (setting [3]), 158 nM; in data set [2] (setting [5]), 160 nM.
The like results for “UUGGUUGUCGUAGGAUAUGUAGGAUAUUCUAAAAUAUGAAGUGAUGUUUCUAUAAUAAGAAGAAGGACAGAAGGACGAUAACCAU [FmnBS 2 - Salish transfer #DoubleAptamer]” were, in that order, 84.7 nM, 100 nM, 111 nM, 103 nM and 99.1 nM.
On the same counts, the results for “UUGUGCAGCAAACGAGUGAUGUUCGACGAUACCAGCCUCGAUAGAGGCCCUUGGCAGCGUAAUAAUCACAGCCAAGGGCUGCACU [#SwitchBubble 4]” are 651 nM, 535 nM, 749 nM, 774 nM and 560 nM.
The like results for “UUGUUUGGUUGAGAGGUUGGGCGAGAUGAUACCAGUAUAGAAGAGUACCCUUGGCAGCAUAGGAGAGAUAUAGUGAUGUUGUAUG [SSTheophA.T]” were, in that order, 437 nM, 355 nM, 480 nM, 494 nM and 333 nM.
As to “UUUAAAUAUAGUGAUGUUAUAUAACAAUGACGAGGACCGGUACGGCCGCCACUCGAGAGAGAUAAUGGUCAUGCAAAUGUAUGUC [#15 K4 Tryptophan A Same State]”, the “apparent KD of K4 kissing-loop reporter” value in data set [2] (input ligand: FMN 200 uM) was determined as 674 nM; in data set [2] (input ligand: arginine 13.2 mM), 684 nM; in data set [2] (input ligand: none), 789 nM; in data set [2] (setting [3]), 746 nM; in data set [2] (setting [5]), 615 nM.
The like results for “UUUCCAGAUAAGUGGGAACACUCCAUAACAGAGGAUAUCAGAGCGCUGAGAAGGCUGUUUUACAGUGAUGUUGUAAGUGUGGAGU [FMN A SS t2]” were, in that order, 153 nM, 249 nM, 283 nM, 304 nM and 253 nM.
The like results for “UUUGGAGUGGGAGGAUAUCCUAAUAUGGGUGAUGUUAGCGAUGUUGAAGGUGUAGUGAUGUUAUGCGGAGAAGGCCCAGUGUAGA [BDazzled - #18 - Exc. FMN B]” were, in that order, 166 nM, 146 nM, 245 nM, 273 nM and 221 nM.
On the same counts, the results for “UUUUAUUAAUUCUUCUAGUGAUGUUAGAUACGAGGACCGGUACGGCCGCCACUCGCUUAUUGGUUUAUAUAUUUUAUAUUCUUUA [JR_SSTryptoA_Sub015]” are 293 nM, 319 nM, 330 nM, 400 nM and 264 nM.
With “UUUUUCGCGUUUGAUACCAGCAGAGUUGUUCGUGUCUGGAGCGUGAGUGAUGUUCAUGUCUGCCCUUGGCAGCAAACGGGAGAAG [KL-XTheo-B14]”, the “apparent KD of K4 kissing-loop reporter” value in data set [2] (input ligand: FMN 200 uM) was 137 nM; in data set [2] (input ligand: arginine 13.2 mM) it was 113 nM; in data set [2] (input ligand: none) it was 123 nM; in data set [2] (setting [3]), 97.1 nM; in data set [2] (setting [5]), 134 nM.
